# Experimental data taken from patent US9783615B2, “Combination treatment of cancer” (UNIVERSITÉ DE LIÈGE, priority 2012, dated 2017).
# Changes are numbered by the printed parent chain. Entries after “also recorded” stand apart in the source; their conditions may differ.
# T1: inactive mutated form of MT4-MMP (E249A) (Homo sapiens, UniProt Q9ULZ9, E249A)
# T1 sequence (Q9ULZ9 126-565 E249A): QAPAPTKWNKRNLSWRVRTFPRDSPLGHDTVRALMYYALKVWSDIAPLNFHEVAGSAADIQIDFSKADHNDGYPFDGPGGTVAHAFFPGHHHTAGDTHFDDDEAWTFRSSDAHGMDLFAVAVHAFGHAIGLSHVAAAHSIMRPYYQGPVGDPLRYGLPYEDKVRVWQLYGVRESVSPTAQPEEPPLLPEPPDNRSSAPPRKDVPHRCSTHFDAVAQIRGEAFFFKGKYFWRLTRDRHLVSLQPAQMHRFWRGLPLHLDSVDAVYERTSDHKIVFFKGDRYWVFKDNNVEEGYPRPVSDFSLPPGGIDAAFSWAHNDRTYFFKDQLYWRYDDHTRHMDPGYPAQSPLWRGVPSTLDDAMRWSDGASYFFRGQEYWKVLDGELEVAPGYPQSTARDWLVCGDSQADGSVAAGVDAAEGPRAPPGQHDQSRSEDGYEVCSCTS
# T2: recombinant wild-type MT4-MMP (Homo sapiens, UniProt Q9ULZ9)
# T2 construct: made in house
# T2 sequence (Q9ULZ9 126-565): T1 sequence (Q9ULZ9 126-565 E249A) with A124E
# T3: recombinant catalytic domain of MT4-MMP (MT4CAT) (Homo sapiens, UniProt Q9ULZ9)
# T3 construct: Enzymatic activity of the recombinant catalytic domain of MT4-MMP (MT4CAT) was monitored
# T3 sequence (Q9ULZ9 126-295 limits assumed): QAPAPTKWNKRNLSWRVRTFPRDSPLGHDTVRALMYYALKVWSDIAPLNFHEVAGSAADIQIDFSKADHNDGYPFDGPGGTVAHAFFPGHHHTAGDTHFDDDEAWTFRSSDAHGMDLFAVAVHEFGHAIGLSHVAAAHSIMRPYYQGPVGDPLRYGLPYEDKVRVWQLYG
# T4: active wild type recombinant MT4-MMP (Homo sapiens, UniProt Q9ULZ9)
# T4 construct: made in house
# T4 sequence (Q9ULZ9 126-565): T1 sequence (Q9ULZ9 126-565 E249A) with A124E
# T5: MT4-MMP inactivated by mutation in its catalytic site (E249A) (Homo sapiens, UniProt Q9ULZ9, E249A)
# T5 sequence (Q9ULZ9 126-565 E249A): T1 sequence (Q9ULZ9 126-565 E249A)
# T6: recombinant MT4-CAT protein (Homo sapiens, UniProt Q9ULZ9)
# T6 construct: Enzymatic activity of the recombinant catalytic domain of MT4-MMP (MT4CAT) was monitored
# T6 sequence (Q9ULZ9 126-295 limits assumed): T3 sequence (Q9ULZ9 126-295 limits assumed)
# B1: K4H7: human scFv antibody that specifically binds and neutralizes MT4-MMP; VH SEQ ID NO: 26, VL SEQ ID NO: 27, complete scFv SEQ ID NO: 28 (protein)
# scFv: QVQLVQSGGGLVKPGRSLRLSCTASGFTFGDYAMSWFRQAPGKGLEWVGFIRSKAYGGTTEYAASVKGRFTISRDDSKSIAYLQMNSLKTEDTAVYYCTRGSSGWFLNWFDPWGQGTLVTVSSLEGGGGSGGGGSGGGGSELETTLTQSPATLSLSPGERATLSCRASQSISSSYLAWYQHKPGQAPRLLIYGASRRATGIPDRFSGSGSGTDFSLTISRLEPEDFAVYYCLHYGSSKWTFGQGTKVEIKR
# Columns and labels:
# [1] = tested on: MDA-MB231 cells expressing MT4-MMP; assay: In vitro 3D Matrigel proliferation assay with DNA quantification; type: cell-based, human; conditions: 7 days; for effect on MT4-MMP-mediated mitogenic effect (cell proliferation, DNA content): 3D Matrigel matrix, signaling pathway inhibitors added to the culture medium
# Description: The medium was changed every three days.
# Inhibition of MT4-MMP-dependent mitogenic effect of cancer cells was performed in 3D culture matrix. […] The medium was changed every three days.
# [2] = tested on: MDA-MB 231 control (CTR) cells; conditions: 3D Matrigel matrix, 7 days
# Description: Matrigel® mixed with an equal volume of culture medium was coated onto 24-well plates (300 μl/plate). Cells (104) suspended in 250 μl of medium were mixed with the same volume of cold Matrigel® and seeded on the previously coated Matrigel® layer. In some assays, growth factor-free Matrigel® was used (BD, Bioscience). For signaling pathway inhibition in the 3D culture model, cells were incubated in Matrigel® matrix and 24 h later several inhibitors were added to the culture medium at the indicated concentrations:
# SB203580, Genistein, U0126, Wortmannin, PP2, SP600125, AG538 (Sigma), PD0332991 (Axon Medchem, Groningen, The Nederlands), MDL-12, GF109203x, AG1478 (Calbiochem, Gibbstown, N.J.). The medium was changed every three days. After 7 days, cells were recovered from 3D cultures upon treatment with 500 μl of Dispase (BD, Bioscience) for 2 h at 37° C. After two washes in PBS, cell pellet was diluted in PBS (1 ml) and sonicated.
# MT1-MMP (MMP14) = molecular target: T7, MT1-MMP (MMP14) (Homo sapiens, UniProt P50281); assay: Antibody specificity by Western blot; type: binding
# T7 construct: but not to MT1-MMP, MT3-MMP and MMP 2 catalytic domains
# [3] = molecular target: T1, inactive mutated form of MT4-MMP (E249A); assay: Antibody specificity by ELISA; type: binding
# Text: (§1) The specificity of K4H7 antibody evaluated by ELISA. […] BSA (column 2) and the absence of protein (column 1: blank) were used as control.
# [4] = molecular target: T2, recombinant wild-type MT4-MMP; assay: Antibody specificity by ELISA; type: binding; conditions: 3 μg protein
# Text: as §1
# [5] = molecular target: T3, recombinant catalytic domain of MT4-MMP (MT4CAT); assay: Inhibition of MT4-MMP enzymatic activity: cleavage of quenched fluorogenic peptide substrate (TACE substrate M-2255); type: biochemical; conditions: scFV clones at 14 nM; substrate 30 μM
# Description: Inhibition of enzymatic activity of MT4-MMP was quantified by measuring the cleavage of quenched fluorogenic peptide substrate by the recombinant catalytic domain of MT4-MMP (MT4-CAT) in the presence or absence of MT4-MMP blocking antibodies (scFV). MT4-CAT (4.5 μM) was pre-incubated with MT4-MMP blocking antibodies (14 nM) for 30 min at 4° C. in buffer containing (50 mM Tris-HCl (pH 7.4); 5 mM CaCl2; ZnCl2 1 μM; 0.005%, Brij, 2% DMSO) before incubation with 30 μM of the fluorogenic substrate (pro-tumor necrosis factor-α converting enzyme (TACE) fluorogenic peptide substrate; Mca-(endo-1a-Dap(Dnp))-TNF-α (−5 to +6) amide (human), M-2255, Bachem AG, Switzerland).
# Neutralizing capacity of antibodies. The enzymatic activity of the recombinant catalytic domain of MT4-MMP (MT4CAT) was monitored by the cleavage of quenched fluorogenic peptide substrate pro-tumor necrosis factor-α converting enzyme (TACE) (M-2255, BACHEM) and using Luminescence spectrometer (SPECTRA MAX; GIMINI). […] The cleavage of quenched fluorogenic peptide was monitored by measuring relative fluorescence units (RFU) during the incubation time (seconds) in the absence of inhibitor (MTCAT+No inhibitor) or in the presence of BB94 (20 μM) or of the scFV clones (14 nM). […]
# MT3-MMP (MMP16) = molecular target: T8, MT3-MMP (MMP16) (Homo sapiens, UniProt P51512); assay: Antibody specificity by Western blot; type: binding
# T8 construct: but not to MT1-MMP, MT3-MMP and MMP 2 catalytic domains
# MMP2 = assay: Antibody specificity by Western blot; type: binding
# [6] = molecular target: T4, active wild type recombinant MT4-MMP; assay: Antibody specificity by Western blot; type: binding; conditions: scFV 1 μg/ml
# Description: (§2) In detail, antibody specificity was assessed by Western blot. Recombinant MT4-MMP (1 μg) was incubated with purified scFV clones (1 μg/ml) that contain a myc tag. Membranes were first incubated with a monoclonal mouse anti-myc antibody (clone 9E10, Sigma M5546) (1/1000) and then with HRP conjugated anti-mouse antibody (FIG. 14 A).
# [7] = molecular target: T5, MT4-MMP inactivated by mutation in its catalytic site (E249A); assay: Antibody specificity by Western blot; type: binding; conditions: scFV 1 μg/ml
# Description: as §2
# [8] = molecular target: T6, recombinant MT4-CAT protein; assay: Antibody affinity on immobilized protein in 96 well-plates (absorbance at 450 nm); type: binding; conditions: 0-3 μg of MT4-CAT per well
# Description: For determining antibody affinity recombinant MT4-CAT protein and BSA (background) was immobilized on 96 well-plates [0-3 μg of MT4-CAT in 15 mM Na-bicarbonate (pH 9.6)/well] for 18 h, at +4° C. Non-specific blockage was carried out by incubation of 3% (w/v) BSA/PBS, 0.01% (v/v) Tween-20, for 1 h, at +4° C. The detection of the bound antibody was carried out with 1:2000 diluted mouse anti-myc antibody (clone 9E10, Sigma M5546) incubated for 1 h, at room temperature, followed by 15 min incubation with HRP-conjugated anti-mouse antibody. After adding TMB substrate, the absorbance was measured at 450 nm Multiskan FC (Thermo Scientific, Rockford, USA).
# T8 sequence (P51512 120-291 limits assumed, species assumed): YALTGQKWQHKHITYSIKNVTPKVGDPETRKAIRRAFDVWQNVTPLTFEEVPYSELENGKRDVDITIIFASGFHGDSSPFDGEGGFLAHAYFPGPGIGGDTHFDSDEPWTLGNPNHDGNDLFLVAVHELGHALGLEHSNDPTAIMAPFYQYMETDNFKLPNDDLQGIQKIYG
molecule,measurement,setting,value
N#C/C(=C\c1ccc(O)c(O)c1)C(=O)c1ccc(O)c(O)c1 [AG538],"effect on MT4-MMP-mediated mitogenic effect (cell proliferation, DNA content)",[1],No change
COc1cc2ncnc(Nc3cccc(Cl)c3)c2cc1OC [AG1478],"effect on MT4-MMP-mediated mitogenic effect (cell proliferation, DNA content)",[1],significantly reduced
CC(=O)c1c(C)c2cnc(Nc3ccc(N4CCNCC4)cn3)nc2n(C2CCCC2)c1=O [PD0332991],"effect on MT4-MMP-mediated mitogenic effect (cell proliferation, DNA content)",[1],inhibited
"CC(C)(C)n1nc(-c2ccc(Cl)cc2)c2c(N)ncnc21 [PP2, 4-amino-5-(4-chlorophenyl)-7-(t-butyl)pyrazol[3,4-d]pyrimidine]","effect on MT4-MMP-mediated mitogenic effect (cell proliferation, DNA content)",[1],No change
N#CC(=C(/N)Sc1ccccc1N)/C(C#N)=C(\N)Sc1ccccc1N [U0126],"effect on MT4-MMP-mediated mitogenic effect (cell proliferation, DNA content)",[1],markedly inverted the proliferative phenotype
same,effect on proliferative rate in control cells,[2],without affecting the proliferative rate
C#Cc1cccc(Nc2ncnc3cc(OCCOC)c(OCCOC)cc23)c1 [erlotinib],inhibition of proliferation of cancer cells (DNA content),"[1]; single treatment 1 μM, 3D Matrigel",partially inhibited; also recorded: reduced cell proliferation
O=c1c(-c2ccc(O)cc2)coc2cc(O)cc(O)c12 [genistein],"effect on MT4-MMP-mediated mitogenic effect (cell proliferation, DNA content)",[1],strongly inhibited
B1,recognition of MT1-MMP (MMP14),MT1-MMP (MMP14),do not recognize
same,reduction of cell proliferation (DNA content),"[1]; single treatment 20 μg/ml, 3D Matrigel",reduced cell proliferation
same,binding to inactive MT4-MMP (E249A),[3],binds specifically
same,binding to wild-type MT4-MMP,[4],binds specifically
same,inhibition of MT4-MMP enzymatic activity (neutralizing capacity),[5],able to inhibit; also recorded: inhibited completely
same,recognition of MT3-MMP (MMP16),MT3-MMP (MMP16),do not recognize
same,recognition of MMP2,MMP2,do not recognize
same,recognition of wild type recombinant MT4-MMP,[6],recognized specifically
same,recognition of MT4-MMP E249A mutant,[7],recognized specifically
same,"affinity / capacity to bind recombinant MT4-MMP, compared among the three scFV clones",[8],highest capacity to bind; also recorded: highest affinity
